This passage reports Kd results from doi:10.1101/494930 (bioRxiv, 2018).

Values joined by “and” are separate entries in the source; they are usually repeats but may differ in a detail not shown here. Equal values may be shown once.

One may read the Kd as a measure of binding affinity in units of concentration.

First the molecules themselves.
B1: WT-HYPE (aa 102-458) (enzyme)
chain: GKLEARAALNQALEMKRQGKREKAQKLFMHALKMDPDFVDALTEFGIFSEEDKDIIQADYLYTRALTISPYHEKALVNRDRTLPLVEEIDQRYFSIIDSKVKKVMSIPKGNSALRRVMEETYYHHIYHTVAIEGNTLTLSEIRHILETRYAVPGKSLEEQNEVIGMHAAMKYINTTLVSRIGSVTISDVLEIHRRVLGYVDPVEAGRFRTTQVLVGHHIPPHPQDVEKQMQEFVQWLNSEEAMNLHPVEFAALAHYKLVYIHPFIDGNGRTSRLLMNLILMQAGYPPITIRKEQRSDYYHVLEAANEGDVRPFIRFIAKCTETTLDTLLFATTEYSVALPEAQPNHSGFKETLPVKP
B2: His6-BiP SBD (aa 418-637) (domain or fragment)
chain: not shown

Holding throughout (assay): BLI
Background: Biolayer interferometry detects binding as a change in optical thickness at a sensor tip.

Assay [1] deals with BiP-His6 (WT-BiP, aa 19-637) (human, UniProt P11021 19-637).
BiP-His6 (WT-BiP, aa 19-637), sequence (P11021 19-637): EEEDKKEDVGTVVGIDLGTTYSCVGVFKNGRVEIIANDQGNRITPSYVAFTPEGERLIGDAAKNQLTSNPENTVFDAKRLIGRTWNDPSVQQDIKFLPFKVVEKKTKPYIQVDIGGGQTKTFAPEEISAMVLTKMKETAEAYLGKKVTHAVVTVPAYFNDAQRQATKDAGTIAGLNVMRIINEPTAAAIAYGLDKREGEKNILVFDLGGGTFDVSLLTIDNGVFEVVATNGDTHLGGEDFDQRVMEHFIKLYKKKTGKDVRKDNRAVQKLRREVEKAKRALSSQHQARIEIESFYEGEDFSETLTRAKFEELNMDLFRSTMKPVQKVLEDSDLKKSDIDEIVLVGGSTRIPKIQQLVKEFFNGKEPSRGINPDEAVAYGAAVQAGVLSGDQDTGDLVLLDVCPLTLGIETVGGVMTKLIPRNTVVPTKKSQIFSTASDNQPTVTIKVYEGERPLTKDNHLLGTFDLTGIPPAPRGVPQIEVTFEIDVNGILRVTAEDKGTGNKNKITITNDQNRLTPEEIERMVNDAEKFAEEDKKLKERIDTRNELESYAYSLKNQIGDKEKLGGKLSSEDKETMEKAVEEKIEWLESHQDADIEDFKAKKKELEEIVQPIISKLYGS
For a further assay, the target named is His6-BiP NBD (aa 28-405) (human, UniProt P11021 28-405).
His6-BiP NBD (aa 28-405), sequence (P11021 28-405): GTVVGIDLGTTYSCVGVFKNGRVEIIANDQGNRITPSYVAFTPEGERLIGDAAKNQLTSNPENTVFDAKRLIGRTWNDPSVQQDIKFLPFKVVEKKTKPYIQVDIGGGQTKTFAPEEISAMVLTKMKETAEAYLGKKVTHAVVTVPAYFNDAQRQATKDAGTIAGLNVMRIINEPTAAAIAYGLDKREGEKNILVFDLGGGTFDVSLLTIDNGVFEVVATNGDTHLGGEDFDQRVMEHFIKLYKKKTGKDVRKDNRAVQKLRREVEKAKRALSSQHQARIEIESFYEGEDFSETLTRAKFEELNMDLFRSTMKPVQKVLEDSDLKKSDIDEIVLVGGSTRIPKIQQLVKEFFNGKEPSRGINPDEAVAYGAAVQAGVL
The assay “WT-HYPE (aa 102-458)” has as its target B1.

Take B1: the Kd is 4.5 µM and 6.1 µM in assay [1]; 3.16 µM with His6-BiP NBD (aa 28-405).

For the molecule B2, the Kd in the assay with WT-HYPE (aa 102-458) is 6.85 µM.
